# Patent US8304206
# Where “and” joins values, the source holds several entries; their conditions need not be identical. Equal entries are not always repeated.
# T1: SIRT1 Acetylated Peptide Substrate Ac-EE-K(biotin)-GQSTSSHSK(Ac)NleSTEG-K(5TMR)-EE-NH2 (SEQ ID NO: 34)
# T1 chain: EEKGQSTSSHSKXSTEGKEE
# Target: T1, SIRT1 Acetylated Peptide Substrate …
protein,measurement,value
"SIRT1 protein (human SIRT1 enzyme), expressed in E. coli BL21(DE3) as an N-terminal His-tag fusion protein (protein) MADEAALALQPGGSPSAAGADREAASSPAGEPLRKRPRRDGPGLERSPGEPGGAAPEREVPAAARGCPGAAAAALWREAEAEAAAAGGEQEAQATAAAGEGDNGPGLQGPSREPPLADNLYDEDDDDEGEEEEEAAAAAIGYRDNLLFGDEIITNGFHSCESDEEDRASHASSSDWTPRPRIGPYTFVQQHLMIGTDPRTILKDLLPETIPPPELDDMTLWQIVINILSEPPKRKKRKDINTIEDAVKLLQECKKIIVLTGAGVSVSCGIPDFRSRDGIYARLAVDFPDLPDPQAMFDIEYFRKDPRPFFKFAKEIYPGQFQPSLCHKFIALSDKEGKLLRNYTQNIDTLEQVAGIQRIIQCHGSFATASCLICKYKVDCEAVRGDIFNQVVPRCPRCPADEPLAIMKPEIVFFGENLPEQFHRAMKYDKDEVDLLIVIGSSLKVRPVALIPSSIPHEVPQILINREPLPHLHFDVELLGDCDVIINELCHRLGGEYAKLCCNPVKLSEITEKPPRTQKELAYLSELPPTPLHVSEDSSSPERTSPPDSSVIVTLLDQAAKSNDDLDVSESKGCMEEKPQEVQTSRNVESIAEQMENPDLKNVGSSTGEKNERTSVAGTVRKCWPNRVAKEQISRRLDGNQYLFLPPNRYIFHGAEVYSDSEDDVLSSSSCGSNSDSGTCQSPSLEEPMEDESEIEEFYNGLEDEPDVPERAGGAGFGTDGDDQEAINEAISVKQEVTDMNYPSNKS","Km (mass spectrometry deacetylase assay, replicate plate)",11.2 µM and 11.9 µM
same,"Peptide Km (mean of 2 replicate plates, mass spectrometry assay)",11.6 µM
same,"deacetylation of the peptide (conversion to deacetylated product, mass spectrometry)",SIRT1 deacetylation activity is dependent on both enzyme concentration and incubation time. Concentrations of enzyme between 5-20 nM result in product formation well above background.
same,decrease of Km for peptide substrate at 1.2 µM resveratrol (against DMSO vehicle),2%
same,decrease of Km for peptide substrate at 3.7 µM resveratrol (against DMSO vehicle),14%
same,decrease of Km for peptide substrate at 11 µM resveratrol (against DMSO vehicle),14%
same,decrease of Km for peptide substrate at 33 µM resveratrol (against DMSO vehicle),32%
same,decrease of Km for peptide substrate at 100 µM resveratrol (against DMSO vehicle),46%
